Consider 16 molecules from patent publication US20150368338A1 (Janssen / Centocor, published 2015).

Where a chain is given by its changes, count along the chain named.

Broadly, the Kd is the free concentration of one partner at which half of the binding sites on the other are occupied at equilibrium, for simple one-to-one binding. Low readings indicate higher affinity, high ones lower affinity.

To fix the notation:
T1: IFN-αF (human, UniProt P01568 24-189)
T1 construct: Recombinant, HEK293; also called IFN-α21
T1 chain: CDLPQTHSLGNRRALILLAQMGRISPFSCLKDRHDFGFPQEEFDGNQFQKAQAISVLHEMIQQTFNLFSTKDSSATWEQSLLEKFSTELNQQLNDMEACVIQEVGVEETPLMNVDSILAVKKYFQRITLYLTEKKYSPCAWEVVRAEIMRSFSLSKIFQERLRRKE

B1: IFWM3383 (antibody, IgG1, V domains shown)
VH: EVQLVQSGAEVKKPGESLKISCKGSGYSFTSYWIGWVRQMPGKGLEWMGIIDPSDSDTRYSPSFQGQVTISADKSISTAYLQWSSLKASDTAMYYCARHPGLAWAPDFDYWGQGTLVTVSS
VL: DIQMTQSPSSLSASVGDRVTITCRASQSISKFLNWYQQKPGKAPKLLIYFASSLQSGVPSRFSGSGSGTDFTLTISSLQPEDFATYYCQQSNTLPFTFGQGTKVEIK
notes: mAb; IgG1/kappa said of the parent and of selected mAbs; also called IFWB3118
B2: IFWM3387 (antibody, IgG1, V domains shown)
VH: B1 VH
VL: B1 VL with S30G, K31G, N92Y, T93S, F96I
notes: mAb; IgG1/kappa said of the parent and of selected mAbs; also called IFWB3122
B3: IFWM3396 (antibody, IgG1, V domains shown)
VH: B1 VH
VL: B1 VL with K31E, F32Y, N92H, T93S, F96I
notes: mAb; IgG1/kappa said of the parent and of selected mAbs; also called IFWB3131
B4: IFWM3386 (antibody, IgG1, V domains shown)
VH: B1 VH
VL: B1 VL with S30A, K31E, N92I, T93D, L94F, F96L
notes: mAb; IgG1/kappa said of the parent and of selected mAbs; also called IFWB3121
B5: IFWM3384 (antibody, IgG1, V domains shown)
VH: B1 VH
VL: B1 VL with S30T, K31N, N92L, T93D, L94F, F96L
notes: mAb; IgG1/kappa said of the parent and of selected mAbs; also called IFWB3119
B6: IFWM3390 (antibody, IgG1, V domains shown)
VH: B1 VH
VL: B1 VL with S30D, K31G, F32A, N92F, T93D, L94F, F96L
notes: mAb; IgG1/kappa said of the parent and of selected mAbs; also called IFWB3125
B7: IFWM3393 (antibody, IgG1, V domains shown)
VH: B1 VH
VL: B1 VL with S30T, K31S, F32S, N92F, T93D, F96L
notes: mAb; IgG1/kappa said of the parent and of selected mAbs; also called IFWB3128
B8: IFWM3398 (antibody, IgG1, V domains shown)
VH: B1 VH
VL: B1 VL with S30N, K31G, F32V, N92H, T93D, L94F, F96L
notes: mAb; IgG1/kappa said of the parent and of selected mAbs; also called IFWB3133
B9: IFWM3397 (antibody, IgG1, V domains shown)
VH: B1 VH
VL: B1 VL with S30T, K31G, F50A, N92H, T93D, L94F, F96L
notes: mAb; IgG1/kappa said of the parent and of selected mAbs; also called IFWB3132
B10: IFWM3391 (antibody, IgG1, V domains shown)
VH: B1 VH
VL: B1 VL with S30N, K31N, N92F, T93N, F96I
notes: mAb; IgG1/kappa said of the parent and of selected mAbs; also called IFWB3126
B11: IFWM3394 (antibody, IgG1, V domains shown)
VH: B1 VH
VL: B1 VL with S30N, K31E, N92Y, T93S, L94T, F96L
notes: mAb; IgG1/kappa said of the parent and of selected mAbs; also called IFWB3129
B12: IFWM3395 (antibody, IgG1, V domains shown)
VH: B1 VH
VL: B1 VL with N92Y, T93D, L94F, F96I
notes: mAb; IgG1/kappa said of the parent and of selected mAbs; also called IFWB3130
B13: IFWM3403 (antibody, IgG1, V domains shown)
VH: B1 VH
VL: B1 VL with S30R, K31N, F32S, Y49K, F50W, S91L, N92Y, T93D, L94W, F96L
notes: mAb; IgG1/kappa said of the parent and of selected mAbs; also called IFWB3138
B14: IFWM3389 (antibody, IgG1, V domains shown)
VH: B1 VH
VL: B1 VL with S30D, K31D, N92H, F96L
notes: mAb; IgG1/kappa said of the parent and of selected mAbs; also called IFWB3124
B15: IFWM3392 (antibody, IgG1, V domains shown)
VH: B1 VH
VL: B1 VL with S30D, K31R, F32A, N92F, T93D, L94F, F96L
notes: mAb; IgG1/kappa said of the parent and of selected mAbs; also called IFWB3127
B16: IFWM3388 (antibody, IgG1, V domains shown)
VH: B1 VH
VL: B1 VL with S30G, F32S, N92Y, T93D, L94F, F96L
notes: mAb; IgG1/kappa said of the parent and of selected mAbs; also called IFWB3123

The target of one test is T2, IFN-α4a (human, UniProt P05014 24-189).
T2 construct: Recombinant, HEK293; also called IFN-αM1
As to the kind of experiment: ProteOn SPR, cell supernatant.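 Further: each binding measurement used just a single antigen concentration.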
Source text: (§1) To increase the assay throughput, only one concentration of the individual antigen was used.
As to B1, the affinity, expressed as Kd, was 0.143 nM.

For the molecule B2, binding was put at a Kd of 0.169 nM.

As for B3, the dissociation constant (Kd) was 0.079 nM.

In turn, B4 gave an equilibrium dissociation constant (Kd) of 0.103 nM.

Molecule B5 registered a Kd of 0.077 nM.

In turn, B6 gave a Kd of 0.075 nM.

B7: the Kd is 0.166 nM.

As to B8, the Kd came out at 0.061 nM.

In the case of B9, the Kd is 0.119 nM.

The molecule B10 yielded an equilibrium dissociation constant (Kd) of 0.117 nM.

Regarding B11, the affinity, expressed as Kd, was 0.105 nM.

B12 came in with an equilibrium dissociation constant (Kd) of 0.279 nM.

For B13, binding was put at a Kd of 0.062 nM.

Turning to B14, binding was characterised by a dissociation constant (Kd) of 0.098 nM.

Consider B15, for which the dissociation constant Kd was determined as 0.058 nM.

The molecule B16 yielded a dissociation constant Kd of 0.084 nM.

A further test addresses T1, IFN-αF. Nature of the test: ProteOn SPR, cell supernatant.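 Further: each binding measurement used just a single antigen concentration.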
Source text: as §1
On to B1, for which binding was put at a Kd of 0.06 nM.

B2 came in with a Kd of 0.058 nM.

In turn, B3 displayed an equilibrium dissociation constant (Kd) of 0.007 nM.

B4 had a Kd of 0.029 nM.

B5 registered a Kd of 0.033 nM.

B6 returned an equilibrium dissociation constant (Kd) of 0.011 nM.

For the molecule B7, the dissociation constant Kd came to 0.041 nM.

The molecule B8 had a dissociation constant Kd of 0.017 nM.

The molecule B9 had a Kd of 0.028 nM.

As to B10, the Kd is 0.025 nM.

The molecule B11 showed a Kd of 0.063 nM.

B12 gave a dissociation constant (Kd) of 0.102 nM.

In the case of B13, binding was put at a Kd of 0.027 nM.

Consider B14, for which binding was characterised by a dissociation constant (Kd) of 0.009 nM.

For the molecule B15, the Kd came out at 0.014 nM.

B16: the Kd is 0.019 nM.

The next test addresses T3, IFN-αG (human, UniProt P01569 24-189).
T3 construct: Recombinant, HEK293; also called IFN-α5
As to the kind of experiment: ProteOn SPR, cell supernatant.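 Further: each binding measurement used just a single antigen concentration.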
Source text: as §1
Regarding B1, the Kd turned out to be 0.084 nM.

Molecule B2 came in with a Kd of 0.034 nM.

Consider B3, for which binding was characterised by a dissociation constant (Kd) of 0.061 nM.

Molecule B4 showed a Kd of 0.026 nM.

Turning to B5, binding was put at a Kd of 0.022 nM.

In the case of B6, the Kd came to 0.01 nM.

B7 displayed an equilibrium dissociation constant (Kd) of 0.064 nM.

In turn, B8 returned a dissociation constant (Kd) of 0.022 nM.

As to B9, the Kd worked out at 0.043 nM.

In turn, B10 displayed a Kd of 0.044 nM.

B11: the equilibrium dissociation constant (Kd) came out at 0.091 nM.

B12: the dissociation constant Kd was determined as 0.063 nM.

For B13, the Kd stood at 0.027 nM.

In turn, B14 returned a dissociation constant (Kd) of 0.033 nM.

Molecule B15 gave a dissociation constant Kd of 0.019 nM.

In turn, B16 came in with a dissociation constant Kd of 0.027 nM.

Another test has as its target T4, human IFN-ω (human, UniProt P05000 24-195).
T4 construct: Recombinant, HEK293; also called interferon omega
Nature of the test: ProteOn SPR, cell supernatant.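 Further: each binding measurement used just a single antigen concentration.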
Source text: as §1
With B1, the Kd came out at 0.028 nM.

For B2, the Kd amounted to 0.039 nM.

Molecule B3 gave a Kd of 0.011 nM.

Molecule B4 registered a dissociation constant (Kd) of 0.026 nM.

On to B5, for which the Kd was 0.026 nM.

In the case of B6, the equilibrium dissociation constant (Kd) came out at 0.01 nM.

In turn, B7 registered a Kd of 0.057 nM.

The molecule B8 came in with a dissociation constant Kd of 0.026 nM.

Consider B9, for which binding was characterised by a dissociation constant (Kd) of 0.025 nM.

Consider B10, for which the Kd came to 0.023 nM.

B11 came in with a Kd of 0.045 nM.

In turn, B12 gave a Kd of 0.019 nM.

With B13, binding was put at a Kd of 0.007 nM.

In the case of B14, binding was put at a Kd of 0.017 nM.

In the case of B15, the Kd came out at 0.023 nM.

For B16, the Kd is 0.033 nM.

The target of the next test is T5, IFN-αWA (human, UniProt P05015 24-189).
T5 construct: Recombinant, HEK293; also called IFN-α16
As to the kind of experiment: ProteOn SPR, cell supernatant.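 Further: each binding measurement used just a single antigen concentration.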
Source text: as §1
For B1, the Kd was 0.064 nM.

In turn, B2 had a Kd of 0.069 nM.

Molecule B3 yielded a Kd of 0.068 nM.

With B4, the Kd was 0.035 nM.

In the case of B5, binding was characterised by a dissociation constant (Kd) of 0.017 nM.

Take B6: the dissociation constant Kd was found to be 0.029 nM.

For B7, binding was put at a Kd of 0.078 nM.

Regarding B8, the equilibrium dissociation constant (Kd) is 0.03 nM.

Molecule B9 gave a Kd of 0.062 nM.

For the molecule B10, the Kd worked out at 0.042 nM.

In the case of B11, the Kd was determined as 0.049 nM.

Molecule B12 gave an equilibrium dissociation constant (Kd) of 0.063 nM.

Consider B13, for which the affinity, expressed as Kd, was 0.023 nM.

B14 had a Kd of 0.03 nM.

Molecule B15 showed a dissociation constant (Kd) of 0.025 nM.

B16 gave a dissociation constant (Kd) of 0.044 nM.

The target in another test is T6, IFN-αJ1 (human, UniProt P01567 24-189).
T6 construct: Recombinant, HEK293; also called IFN-α7
As to the kind of experiment: ProteOn SPR, cell supernatant.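 Further: each binding measurement used just a single antigen concentration.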
Source text: as §1
In the case of B1, binding was characterised by a dissociation constant (Kd) of 0.086 nM.

B2: the equilibrium dissociation constant (Kd) is 0.161 nM.

In the case of B3, the Kd was 0.037 nM.

Consider B4, for which the Kd amounted to 0.087 nM.

In turn, B5 came in with a Kd of 0.068 nM.

B6 showed a Kd of 0.03 nM.

For the molecule B7, the Kd worked out at 0.096 nM.

On to B8, for which the Kd is 0.044 nM.

As for B9, the dissociation constant (Kd) came to 0.078 nM.

B10 had a Kd of 0.066 nM.

The molecule B11 gave a dissociation constant (Kd) of 0.077 nM.

Molecule B12 came in with a Kd of 0.181 nM.

Take B13: binding was put at a Kd of 0.059 nM.

B14 showed a Kd of 0.032 nM.

Regarding B15, the Kd was found to be 0.021 nM.

B16 displayed a Kd of 0.055 nM.

A further test deals with T7, IFN-αC (human, UniProt P01566 24-189).
T7 construct: Recombinant, HEK293; also called IFN-α10
Nature of the test: ProteOn SPR, cell supernatant.
Source text: as §1
B1 displayed a dissociation constant Kd of 0.069 nM.

With B2, binding was characterised by a dissociation constant (Kd) of 0.09 nM.

In turn, B3 registered a Kd of 0.005 nM.

Consider B4, for which the Kd was found to be 0.031 nM.

The molecule B5 showed an equilibrium dissociation constant (Kd) of 0.029 nM.

Molecule B6 registered a Kd of 0.011 nM.

In turn, B7 came in with an equilibrium dissociation constant (Kd) of 0.049 nM.

In turn, B8 yielded a dissociation constant (Kd) of 0.017 nM.

On to B9, for which binding was characterised by a dissociation constant (Kd) of 0.027 nM.

As for B10, the Kd was found to be 0.016 nM.

B11 came in with a dissociation constant (Kd) of 0.063 nM.

B12 came in with a dissociation constant (Kd) of 0.116 nM.

B13 had a Kd of 0.025 nM.

In the case of B14, the dissociation constant Kd was 0.024 nM.

On to B15, for which the Kd is 0.016 nM.

The molecule B16 yielded a Kd of 0.03 nM.
